The record followed here is patent US20240190989A1 (BEIGENE SWITZERLAND, published 2024).

Where “and” joins values, the source holds several entries; their conditions need not be identical. Identical values can stand only once.

Assay [1] concerns the target T1, soluble human CEA, amino acids 1-687 of huCEA with C-terminal 6xHis tag (human, UniProt P06731 35-687).
T1 construct: also called sCEA; soluble huCEA
T1 sequence: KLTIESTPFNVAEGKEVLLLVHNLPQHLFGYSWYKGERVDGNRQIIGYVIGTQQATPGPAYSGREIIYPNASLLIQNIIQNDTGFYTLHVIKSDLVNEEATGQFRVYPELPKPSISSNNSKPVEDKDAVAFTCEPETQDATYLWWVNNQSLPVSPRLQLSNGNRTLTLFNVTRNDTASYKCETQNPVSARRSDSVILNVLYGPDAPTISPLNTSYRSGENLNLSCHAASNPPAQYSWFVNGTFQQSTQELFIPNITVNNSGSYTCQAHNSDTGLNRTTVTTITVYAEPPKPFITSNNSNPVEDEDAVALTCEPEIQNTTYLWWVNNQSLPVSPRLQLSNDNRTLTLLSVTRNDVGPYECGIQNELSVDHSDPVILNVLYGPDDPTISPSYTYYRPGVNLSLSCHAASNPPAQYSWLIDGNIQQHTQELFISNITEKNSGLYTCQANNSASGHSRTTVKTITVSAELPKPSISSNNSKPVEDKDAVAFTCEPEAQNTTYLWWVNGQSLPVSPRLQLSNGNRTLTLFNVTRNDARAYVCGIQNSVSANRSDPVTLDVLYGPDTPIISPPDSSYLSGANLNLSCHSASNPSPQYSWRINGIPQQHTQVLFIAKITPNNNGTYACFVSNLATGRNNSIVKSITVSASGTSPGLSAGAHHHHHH
As to the kind of experiment: antigen ELISA on huCEA (CEA/His), two batches of BE-146 [panel A].

For assay [2], the target named is T2, full-length human CEA on cells (MKN45, LOVO, L929/huCEA, CT26/CEA, CT26-OS8-CEA) (human, UniProt P06731 35-685).
T2 construct: also called CEACAM5; native CEA
T2 sequence: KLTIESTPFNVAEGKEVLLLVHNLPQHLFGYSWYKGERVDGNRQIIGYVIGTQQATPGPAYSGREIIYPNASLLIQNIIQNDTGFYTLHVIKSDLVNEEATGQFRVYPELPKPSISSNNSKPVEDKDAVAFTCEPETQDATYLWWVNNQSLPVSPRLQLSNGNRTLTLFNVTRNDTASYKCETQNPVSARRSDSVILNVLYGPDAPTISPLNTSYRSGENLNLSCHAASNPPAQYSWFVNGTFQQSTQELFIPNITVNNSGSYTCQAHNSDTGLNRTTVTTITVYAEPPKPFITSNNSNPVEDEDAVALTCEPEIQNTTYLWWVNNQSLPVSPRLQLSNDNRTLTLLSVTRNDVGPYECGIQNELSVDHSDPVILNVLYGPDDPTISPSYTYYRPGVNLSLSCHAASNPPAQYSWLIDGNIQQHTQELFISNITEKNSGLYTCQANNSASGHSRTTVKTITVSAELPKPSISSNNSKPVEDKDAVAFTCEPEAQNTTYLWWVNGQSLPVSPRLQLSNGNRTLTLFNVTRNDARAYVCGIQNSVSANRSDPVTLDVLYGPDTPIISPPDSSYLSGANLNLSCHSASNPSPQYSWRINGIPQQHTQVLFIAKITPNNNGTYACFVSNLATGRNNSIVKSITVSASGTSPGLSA
As to the kind of experiment: FACS on CT26-OS8-CEA cells.

In assay [3] the target is T3, mouse CD137 (recombinant protein, SPR) (mouse, UniProt P20334 24-187, limits assumed).
T3 construct: also called murine CD137
T3 sequence (looked up): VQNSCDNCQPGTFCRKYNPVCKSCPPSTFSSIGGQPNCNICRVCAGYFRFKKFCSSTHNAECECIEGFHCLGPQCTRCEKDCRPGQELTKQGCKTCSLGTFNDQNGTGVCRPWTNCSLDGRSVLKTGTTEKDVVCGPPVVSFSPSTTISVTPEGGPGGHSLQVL
As to the kind of experiment: SPR.

For assay [4], the target named is T4, full-length human CD137 on cells (Hut78/huCD137, HEK293 transfectants, JK-NFKB-CD137) (human, UniProt Q07011 24-255). As to the kind of experiment: cell-based or functional assay.
The target in assay [5] is T5, cynoCEA (Cat. CE5-C52H5, Acrobiosystem) (cynomolgus monkey).
T5 construct: Bought protein; also called Monkey CEA
As to the kind of experiment: SPR, Monkey CEA.

The target of the next assay is T6, cyno CD137 ECD-mIgG2a (monkey (Macaca mulatta gene; called …).
T6 chain: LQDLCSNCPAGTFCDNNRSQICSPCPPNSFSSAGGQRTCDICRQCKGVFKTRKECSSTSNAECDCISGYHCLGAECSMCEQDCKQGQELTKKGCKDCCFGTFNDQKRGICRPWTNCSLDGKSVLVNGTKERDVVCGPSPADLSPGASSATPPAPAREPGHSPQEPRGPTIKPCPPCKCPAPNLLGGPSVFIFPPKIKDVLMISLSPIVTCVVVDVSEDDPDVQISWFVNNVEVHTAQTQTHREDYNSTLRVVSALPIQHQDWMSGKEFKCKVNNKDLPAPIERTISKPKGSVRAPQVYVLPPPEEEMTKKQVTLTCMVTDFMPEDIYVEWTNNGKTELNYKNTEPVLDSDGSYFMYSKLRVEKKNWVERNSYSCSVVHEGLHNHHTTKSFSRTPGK
Put plainly: SPR, Monkey CD137.

Assay [6] addresses T4, full-length human CD137 on cells …. As to the kind of experiment: FACS on HuT78/CD137 cells.
Assay [7] addresses T7, human CD137 ECD-mIgG2a (human).
T7 construct: ECD 24-183 of huCD137 fused to mouse IgG2a Fc; also called huCD137-mIgG2a; huCD137
As to the kind of experiment: SPR, Human CD137.

Assay [8] concerns the target T7, human CD137 ECD-mIgG2a. As to the kind of experiment: antigen ELISA on huCD137-mIgG2a [panel B].
The target in assay [9] is T1, soluble human CEA, amino acids 1-687 of …. Put plainly: SPR, Human CEA.
The next assay deals with FcγRIIIAF158 (UniProt P08637 17-208). Put plainly: ELISA-based FcγR binding, luminescence read-out (RLU).
Chain of FcγRIIIAF158 (P08637 17-208): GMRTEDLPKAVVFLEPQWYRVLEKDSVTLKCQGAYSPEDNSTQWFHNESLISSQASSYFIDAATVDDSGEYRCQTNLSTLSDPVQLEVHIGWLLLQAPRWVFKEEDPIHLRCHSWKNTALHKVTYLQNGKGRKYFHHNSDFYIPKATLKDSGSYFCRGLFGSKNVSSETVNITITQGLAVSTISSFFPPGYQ

T4 sequence (Q07011 24-255 limits assumed): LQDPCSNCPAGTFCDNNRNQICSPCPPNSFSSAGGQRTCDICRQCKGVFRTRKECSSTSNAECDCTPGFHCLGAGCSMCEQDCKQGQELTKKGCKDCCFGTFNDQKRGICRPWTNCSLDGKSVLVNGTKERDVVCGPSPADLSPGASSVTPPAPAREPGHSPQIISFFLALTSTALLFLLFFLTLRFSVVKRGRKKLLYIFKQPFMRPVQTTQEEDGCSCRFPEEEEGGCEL

B1: BE-146 (CEAxCD137 multispecific antibody) (bispecific antibody, human IgG1, kappa)
heavy: QVQLVQSGAEVKKPGASVKVSCKASGYIFTSYYLHWVRQAPGQGLEWIGYINPQTGKTSYAQKFQGRVTMTRDTSTSTVYMELSSLRSEDTAVYYCAREYGNYNYPLDYWGQGTLVTVSSASTKGPSVFPLAPSSKSTSGGTAALGCLVKDYFPEPVTVSWNSGALTSGVHTFPAVLQSSGLYSLSSVVTVPSSSLGTQTYICNVNHKPSNTKVDKKVEPKSCDKTHTCPPCPAPPAAGPSVFLFPPKPKDTLMISRTPEVTCVVVDVSHEDPEVKFNWYVDGVEVHNAKTKPREEQYNSTYRVVSVLTVLHQDWLNGKEYKCKVSNKALAAPIEKTISKAKGQPREPQVYTLPPSREEMTKNQVSLTCLVKGFYPSDIAVEWESNGQPENNYKTTPPVLDSDGSFFLYSKLTVDKSRWQQGNVFSCSVMHEALHNHYTQKSLSLSPGKGGGGSEVQLLESGGGLVQPGGSLRLSCAASGFTVSAEDVGWVRQAPGKGLEWVSAILDKGGSTYYAESVKGRFTISRDNAKNTLYLQMSSLRAEDTAVYYCARIVYHAGGGVTFDTRGQGTQVTVSS
light: DIQMTQSPSSLSASVGDRVTITCRASENQYGYLAWYQQKPGKVPKLLIYNYKNLVEGVPSRFSGSGSGTDFTLTISSLQPEDVATYYCQHHLGTPYTFGQGTKVEIKRTVAAPSVFIFPPSDEQLKSGTASVVCLLNNFYPREAKVQWKVDNALQSGNSQESVTEQDSKDSTYSLSSTLTLSKADYEKHKVYACEVTHQGLSSPVTKSFNRGEC
notes: Module ratio 2:2, Fc null version of huIgG1; copies: 2 + 2
Consider B1, for which the “EC50 (read off the curve)” value is about 0.07 µg/mL in assay [1] and about 0.08 µg/mL with human CD137 ECD-mIgG2a [8]. Moreover, the 50% effective concentration (EC50) in [2] was 1.53 µg/mL and 8.75 nM; in assay [6], 2.26 µg/mL and 12.9 nM. Besides, the binding result in assay [3] is on record as “no binding”; with FcγRIIIAF158, “no binding (tested: not shown)”. In addition, the “NF-kB luciferase reporter in JK-NFKB-CD137 cells co-cultured with CT26-OS8-CEA, EC50” value in assay [4] was 0.51 µg/mL and 2.91 nM and 0.56 µg/mL and 3.2 nM. Moreover, the Kd was determined as 11.4 nM in [5], 15.9 nM with cyno CD137 ECD-mIgG2a, 36.2 nM with human CD137 ECD-mIgG2a [7] and 3 nM in assay [9]. Besides, the koff in [5] worked out at 0.000717 s⁻¹; with cyno CD137 ECD-mIgG2a it was 0.00266 s⁻¹; with human CD137 ECD-mIgG2a [7], 0.00469 s⁻¹; in assay [9] it was 0.000295 s⁻¹. Besides, the kon amounted to 63000 M⁻¹ s⁻¹ in assay [5], 167000 M⁻¹ s⁻¹ with cyno CD137 ECD-mIgG2a, 130000 M⁻¹ s⁻¹ with human CD137 ECD-mIgG2a [7] and 98500 M⁻¹ s⁻¹ in assay [9].
